Data published in paper PMC7979870.

Target: ALFA peptide and His8-tagged ZAC orthologue from Oryzias latipes (OlZAC) (Oryzias latipes)
Assay: negative staining EM with 2D classification; purified OlZAC reconstituted into NAPol amphipol, stained with 2% uranyl acetate, Talos L120C at 120 kV, 2D classification in RELION 3.0

stoichiometry N: 5
Substance: ALFA peptide and His8-tagged ZAC orthologue from Oryzias latipes (OlZAC) (receptor)
